The values below come from patent publication US20130315910A1 (Xencor, published 2013).

First the molecules themselves.
T1: human FcγRIIb receptor protein (R&D Systems) (human, UniProt P31994 46-217)
T1 construct: Bought protein injected over captured antibody in Biacore; also called CD32b
T1 sequence (looked up): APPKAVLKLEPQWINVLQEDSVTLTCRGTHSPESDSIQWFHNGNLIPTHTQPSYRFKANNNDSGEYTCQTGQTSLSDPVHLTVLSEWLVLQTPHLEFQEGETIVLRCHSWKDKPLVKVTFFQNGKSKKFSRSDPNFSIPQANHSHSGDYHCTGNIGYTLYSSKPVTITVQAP

T2: human FcγRIIa (131R), His- and GST-tagged (human, UniProt P12318 34-217)
T2 construct: Expressed in HEK293T cells, purified by nickel chromatography; also called R131 FcγRIIa; not shown: 6xHis and GST tags of the pTT5 vector
T2 sequence (looked up): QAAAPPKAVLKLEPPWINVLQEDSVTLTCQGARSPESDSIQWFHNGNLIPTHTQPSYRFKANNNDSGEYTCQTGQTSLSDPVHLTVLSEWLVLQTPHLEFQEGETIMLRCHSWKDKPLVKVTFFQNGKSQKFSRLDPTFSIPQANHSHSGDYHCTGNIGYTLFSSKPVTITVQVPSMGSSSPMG

T3: human FcγRIIa (131H), His- and GST-tagged (human, UniProt P12318 34-217)
T3 construct: also called H131 FcγRIIa; HIIa; not shown: 6xHis and GST tags of the pTT5 vector
T3 sequence (looked up): T2 sequence (looked up) with R134H

T4: mFcγRIIb (Mus musculus, UniProt P08101)
T4 construct: extracellular region, C-terminal His- and GST-tag; also called mouse FcγRII
T4 sequence (receptor extracellular region, looked up): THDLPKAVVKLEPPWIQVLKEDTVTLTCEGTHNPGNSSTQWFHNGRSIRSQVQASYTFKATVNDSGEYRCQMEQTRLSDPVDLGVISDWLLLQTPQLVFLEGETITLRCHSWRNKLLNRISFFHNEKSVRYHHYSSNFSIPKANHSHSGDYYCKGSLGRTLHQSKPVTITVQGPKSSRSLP

T5: cynoFcγRIIb (Macaca fascicularis, UniProt A0A140HDP4)
T5 construct: extracellular region, C-terminal His- and GST-tag; also called cynomolgus monkey FcγRIIb
T5 sequence (receptor extracellular region): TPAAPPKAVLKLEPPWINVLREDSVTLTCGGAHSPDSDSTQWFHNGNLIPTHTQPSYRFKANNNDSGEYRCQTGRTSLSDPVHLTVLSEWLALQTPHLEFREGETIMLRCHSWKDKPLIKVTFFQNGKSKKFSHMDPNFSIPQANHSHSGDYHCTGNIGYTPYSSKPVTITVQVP

B1: H268D/L328F/I332E (antibody, human IgG1, kappa)
heavy: EVQLVESGGGLVKPGGSLKLSCAASGYTFTSYVMHWVRQAPGKGLEWIGYINPYNDGTKYNEKFQGRVTISSDKSISTAYMELSSLRSEDTAMYYCARGTYYYGTRVFDYWGQGTLVTVSSASTKGPSVFPLAPSSKSTSGGTAALGCLVKDYFPEPVTVSWNSGALTSGVHTFPAVLQSSGLYSLSSVVTVPSSSLGTQTYICNVNHKPSNTKVDKKVEPKSCDKTHTCPPCPAPELLGGPSVFLFPPKPKDTLMISRTPEVTCVVVDVSDEDPEVKFNWYVDGVEVHNAKTKPREEQYNSTYRVVSVLTVLHQDWLNGKEYKCKVSNKAFPAPEEKTISKAKGQPREPQVYTLPPSREEMTKNQVSLTCLVKGFYPSDIAVEWESNGQPENNYKTTPPVLDSDGSFFLYSKLTVDKSRWQQGNVFSCSVMHEALHNHYTQKSLSLSPGK
light: DIVMTQSPATLSLSPGERATLSCRSSKSLQNVNGNTYLYWFQQKPGQSPQLLIYRMSNLNSGVPDRFSGSGSGTEFTLTISSLEPEDFAVYYCMQHLEYPITFGAGTKLEIKRTVAAPSVFIFPPSDEQLKSGTASVVCLLNNFYPREAKVQWKVDNALQSGNSQESVTEQDSKDSTYSLSSTLTLSKADYEKHKVYACEVTHQGLSSPVTKSFNRGEC
notes: HuAM4G7 anti-CD19 IgG1 (m1) with these Fc substitutions, EU index; copies: 2 + 2
B2: H268E/L328Y/I332E (antibody, human IgG1, kappa)
heavy: B1 heavy with D272E, F332Y
light: B1 light
notes: as for B1
B3: L235W (antibody, human IgG1, kappa)
heavy: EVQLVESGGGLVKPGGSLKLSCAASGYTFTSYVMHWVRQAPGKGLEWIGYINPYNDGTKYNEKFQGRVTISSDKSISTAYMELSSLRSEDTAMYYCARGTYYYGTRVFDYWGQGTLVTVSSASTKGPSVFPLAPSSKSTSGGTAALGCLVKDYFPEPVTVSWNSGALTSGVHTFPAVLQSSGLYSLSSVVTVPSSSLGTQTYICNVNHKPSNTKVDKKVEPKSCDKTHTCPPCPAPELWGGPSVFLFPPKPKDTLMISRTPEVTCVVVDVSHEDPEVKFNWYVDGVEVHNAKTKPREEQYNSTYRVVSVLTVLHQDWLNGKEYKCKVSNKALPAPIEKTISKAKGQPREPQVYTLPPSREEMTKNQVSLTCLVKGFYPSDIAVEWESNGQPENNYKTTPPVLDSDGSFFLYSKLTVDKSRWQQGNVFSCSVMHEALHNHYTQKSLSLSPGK
light: B1 light
notes: HuAM4G7 anti-CD19 IgG1 (m1) with this Fc substitution, EU index; copies: 2 + 2
B4: K326A (antibody, human IgG1, kappa)
heavy: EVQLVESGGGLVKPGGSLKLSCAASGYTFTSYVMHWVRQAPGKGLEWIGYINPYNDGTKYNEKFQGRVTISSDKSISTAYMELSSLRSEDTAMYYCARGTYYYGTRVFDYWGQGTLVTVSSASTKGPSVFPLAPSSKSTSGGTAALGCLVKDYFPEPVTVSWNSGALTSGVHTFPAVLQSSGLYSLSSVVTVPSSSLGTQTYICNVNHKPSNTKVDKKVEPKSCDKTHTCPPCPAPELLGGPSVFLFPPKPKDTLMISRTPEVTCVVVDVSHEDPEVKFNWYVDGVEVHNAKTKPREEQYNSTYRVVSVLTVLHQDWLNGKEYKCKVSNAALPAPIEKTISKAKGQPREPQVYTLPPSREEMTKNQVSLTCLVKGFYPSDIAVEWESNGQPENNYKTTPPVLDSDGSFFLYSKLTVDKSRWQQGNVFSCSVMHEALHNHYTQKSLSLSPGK
light: B1 light
notes: as for B3
B5: H268D/K326D/L328Y (antibody, human IgG1, kappa)
heavy: B1 heavy with K330D, F332Y, E336I
light: B1 light
notes: as for B1
B6: A327D/L328Y/I332E (antibody, human IgG1, kappa)
heavy: B1 heavy with D272H, A331D, F332Y
light: B1 light
notes: as for B1
B7: S239D/A327D/L328Y (antibody, human IgG1, kappa)
heavy: B1 heavy with S243D, D272H, A331D, F332Y, E336I
light: B1 light
notes: as for B1
B8: H268D/L328Y/I332E (antibody, human IgG1, kappa)
heavy: B1 heavy with F332Y
light: B1 light
notes: as for B1
B9: A330K (antibody, human IgG1, kappa)
heavy: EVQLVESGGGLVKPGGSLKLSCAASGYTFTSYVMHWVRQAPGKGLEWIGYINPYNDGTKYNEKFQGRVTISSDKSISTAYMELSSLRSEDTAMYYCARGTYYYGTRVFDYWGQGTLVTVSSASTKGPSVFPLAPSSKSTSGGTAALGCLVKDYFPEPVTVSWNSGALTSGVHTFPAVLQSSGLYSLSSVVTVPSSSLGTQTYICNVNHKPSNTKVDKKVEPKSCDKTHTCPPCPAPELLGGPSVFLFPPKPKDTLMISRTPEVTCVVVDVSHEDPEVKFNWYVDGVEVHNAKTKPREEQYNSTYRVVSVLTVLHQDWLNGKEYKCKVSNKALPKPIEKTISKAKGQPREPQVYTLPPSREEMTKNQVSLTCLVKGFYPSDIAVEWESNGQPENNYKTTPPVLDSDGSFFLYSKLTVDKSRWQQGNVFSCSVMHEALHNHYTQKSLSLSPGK
light: B1 light
notes: as for B3
B10: S267A/H268D/L328Y (antibody, human IgG1, kappa)
heavy: B1 heavy with S271A, F332Y, E336I
light: B1 light
notes: as for B1
B11: S267A/L328Y/I332E (antibody, human IgG1, kappa)
heavy: B1 heavy with S271A, D272H, F332Y
light: B1 light
notes: as for B1
B12: L234Y (antibody, human IgG1, kappa)
heavy: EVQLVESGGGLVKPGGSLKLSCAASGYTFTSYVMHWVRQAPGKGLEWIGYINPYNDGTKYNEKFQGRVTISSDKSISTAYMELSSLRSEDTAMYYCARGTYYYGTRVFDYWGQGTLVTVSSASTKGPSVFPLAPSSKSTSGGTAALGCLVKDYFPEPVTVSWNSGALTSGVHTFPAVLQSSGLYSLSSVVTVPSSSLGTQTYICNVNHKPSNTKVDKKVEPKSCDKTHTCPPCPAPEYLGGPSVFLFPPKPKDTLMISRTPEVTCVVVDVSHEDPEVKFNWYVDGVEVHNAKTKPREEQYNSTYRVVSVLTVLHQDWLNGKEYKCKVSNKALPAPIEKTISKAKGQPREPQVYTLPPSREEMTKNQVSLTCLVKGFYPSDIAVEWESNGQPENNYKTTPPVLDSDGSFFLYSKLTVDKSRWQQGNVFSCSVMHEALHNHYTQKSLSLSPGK
light: B1 light
notes: as for B3
B13: A330S (antibody, human IgG1, kappa)
heavy: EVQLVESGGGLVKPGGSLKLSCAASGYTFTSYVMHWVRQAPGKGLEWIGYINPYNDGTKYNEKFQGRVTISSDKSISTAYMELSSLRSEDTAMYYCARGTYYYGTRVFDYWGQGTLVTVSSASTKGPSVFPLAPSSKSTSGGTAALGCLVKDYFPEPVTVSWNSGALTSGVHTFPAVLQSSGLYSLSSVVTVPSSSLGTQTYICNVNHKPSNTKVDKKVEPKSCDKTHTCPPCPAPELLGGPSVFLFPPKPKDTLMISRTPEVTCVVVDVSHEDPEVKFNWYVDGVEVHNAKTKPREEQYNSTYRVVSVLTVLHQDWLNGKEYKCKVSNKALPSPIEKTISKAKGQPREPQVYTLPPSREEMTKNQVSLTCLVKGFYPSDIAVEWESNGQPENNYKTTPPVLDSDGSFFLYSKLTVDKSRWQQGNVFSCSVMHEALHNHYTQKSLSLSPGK
light: B1 light
notes: as for B3
B14: S239D/S267E/H268E (antibody, human IgG1, kappa)
heavy: B1 heavy with S243D, S271E, D272E, F332L, E336I
light: B1 light
notes: as for B1
B15: L235H (antibody, human IgG1, kappa)
heavy: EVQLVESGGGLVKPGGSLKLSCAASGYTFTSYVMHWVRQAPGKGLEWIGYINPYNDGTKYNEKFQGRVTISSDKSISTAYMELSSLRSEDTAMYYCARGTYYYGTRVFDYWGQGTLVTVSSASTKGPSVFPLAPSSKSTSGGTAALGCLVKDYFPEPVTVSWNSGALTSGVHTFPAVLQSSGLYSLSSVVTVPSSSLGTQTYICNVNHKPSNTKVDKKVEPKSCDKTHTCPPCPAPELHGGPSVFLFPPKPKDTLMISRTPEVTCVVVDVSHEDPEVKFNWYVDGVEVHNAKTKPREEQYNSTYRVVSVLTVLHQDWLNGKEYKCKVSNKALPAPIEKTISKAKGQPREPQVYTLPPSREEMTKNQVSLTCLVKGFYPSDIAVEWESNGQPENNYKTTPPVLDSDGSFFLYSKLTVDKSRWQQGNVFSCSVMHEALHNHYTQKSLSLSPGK
light: B1 light
notes: as for B3

Where a chain is given by its changes, count along the chain named. In names and notes the source's numbering stands.

In the first test the target is T1, human FcγRIIb receptor protein (R&D …). As to the kind of experiment: SPR. On the procedure:
(§1) Variants were screened for receptor affinity using Biacore™ technology, also referred to as Biacore herein, a surface plasmon resonance (SPR) based technology for studying biomolecular interactions in real time. SPR measurements were performed using a Biacore 3000 instrument (Biacore, Piscataway, N.J.). A protein A/G (Pierce Biotechnology) CM5 biosensor chip (Biacore) was generated using a standard primary amine coupling protocol. All measurements were performed using HBS-EP buffer (10 mM HEPES pH 7.4, 0.15 M NaCl, 3 mM EDTA, 0.005% vol/vol surfactant P20, Biacore). Antibodies at 20 nM or 50 nM in HBS-EP buffer were immobilized on the protein A/G surface and FcγRs were injected. After each cycle, the surface was regenerated by injecting glycine buffer (10 mM, pH 1.5). Data were processed by zeroing time and response before the injection of FcγR and by subtracting appropriate nonspecific signals (response of reference channel and injection of running buffer). Kinetic analyses were performed by global fitting of binding data with a 1:1 Langmuir binding model using BIAevaluation software (Biacore).
(SPR reads the build-up and loss of mass on a sensor chip optically.)
One may read the Kd as the concentration at which binding is half-saturated. Higher therefore signals weaker binding. For the molecule B1, the “Fold vs WT IgG1” value was determined as 12.3 fold and the Kd was determined as 119 nM.
Consider B2, for which the “Fold vs WT IgG1” value is 8.53 fold and the affinity, expressed as Kd, was 172 nM.
Turning to B3, the binding result is reported as “no binding”.
As for B4, the binding result is on record as “no binding”.
Turning to B5, the “Fold vs WT IgG1” value was 18.6 fold and the Kd was 78.9 nM.
As for B6, the “Fold vs WT IgG1” value was determined as 2.31 fold and binding was characterised by a dissociation constant (Kd) of 636 nM.
As to B7, the “Fold vs WT IgG1” value was determined as 11.9 fold and the dissociation constant Kd turned out to be 123 nM.
For the molecule B8, the “Fold vs WT IgG1” value worked out at 4.89 fold and binding was characterised by a dissociation constant (Kd) of 300 nM.
Turning to B9, the “Fold vs WT IgG1” value was determined as 1.55 fold and binding was characterised by a dissociation constant (Kd) of 947 nM.
The like results for B10 were, in that order, 10.7 fold and 137 nM.
As for B11, the “Fold vs WT IgG1” value is 13.5 fold and the Kd turned out to be 109 nM.
As for B12, the “Fold vs WT IgG1” value is 0.0237 fold and binding was characterised by a dissociation constant (Kd) of 61900 nM.
The like results for B13 were, in that order, 0.0635 fold and 23100 nM.
B14 returned a Kd of 6.91 nM.
As to B15, the “Fold vs WT IgG1” value is 0.734 fold and the Kd amounted to 2000 nM.

In a further test the target is T6, human FcγRI receptor protein (R&D Systems) (human, UniProt P12314 16-288).
T6 construct: also called soluble FcγRI; solFcγRI
T6 sequence (P12314 16-288 limits assumed): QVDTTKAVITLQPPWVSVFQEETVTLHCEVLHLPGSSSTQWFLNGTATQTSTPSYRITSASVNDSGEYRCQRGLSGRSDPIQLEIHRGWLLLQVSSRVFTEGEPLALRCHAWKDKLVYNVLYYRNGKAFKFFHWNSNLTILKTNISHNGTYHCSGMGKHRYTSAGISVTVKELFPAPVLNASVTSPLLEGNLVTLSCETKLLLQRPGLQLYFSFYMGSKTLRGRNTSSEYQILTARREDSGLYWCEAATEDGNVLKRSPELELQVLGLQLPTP
Put plainly: SPR. How it is done: as §1
The molecule B14 registered a Kd of 0.326 nM.

For the next test, the target named is T2, human FcγRIIa (131R), His- and …. Put plainly: SPR. On the procedure: as §1
With B3, the binding result is on record as “no binding”.
Take B12: the “Fold vs WT IgG1” value was 0.0511 fold and binding was characterised by a dissociation constant (Kd) of 16800 nM.
In the case of B15, the “Fold vs WT IgG1” value came to 0.756 fold and the Kd worked out at 1140 nM.

For a further test, the target named is T3, human FcγRIIa (131H), His- and …. Put plainly: SPR. How it is done:
as §1
Molecule B14 returned a Kd of 817 nM.

Another test has as its target T4, mFcγRIIb. Put plainly: SPR. On the procedure: as §1
(§2) Variant antibodies were tested for their affinity to mouse or cynologous monkey FcγRs using Biacore SPR as described above. Specifically, antibodies were first immobilized on a protein A/G chip to high density, and then followed by injections of the extracellular domain of the mouse or cynologous monkey FcγR of interest. Both association and dissociation phases were tracked in real time using the Biacore technology.
Consider B1, for which the “Fold vs WT IgG1 (Kd)” value was 1.48 fold.
On to B2, for which the “Fold vs WT IgG1 (Kd)” value stood at 1.5 fold.
Turning to B4, the “Fold vs WT IgG1 (Kd)” value amounted to 0.164 fold.
B5: the “Fold vs WT IgG1 (Kd)” value was 19.4 fold.
For the molecule B6, the “Fold vs WT IgG1 (Kd)” value was 1.24 fold.
B7: the “Fold vs WT IgG1 (Kd)” value came out at 45.3 fold.
For B8, the “Fold vs WT IgG1 (Kd)” value came out at 1.28 fold.
The same measure, in the same setting: the result for B9 reads 0.296 fold; that for B10, 32.4 fold.
As for B11, the “Fold vs WT IgG1 (Kd)” value came to 2.63 fold.
B13: the “Fold vs WT IgG1 (Kd)” value was 0.054 fold.

The target of the next test is T5, cynoFcγRIIb. Put plainly: SPR. How it is done:
as §1, §2
For the molecule B1, the “Fold vs WT IgG1 (Kd)” value was determined as 4.88 fold.
Regarding B2, the “Fold vs WT IgG1 (Kd)” value was 4.16 fold.
With B3, the “Fold vs WT IgG1 (Kd)” value was 1.44 fold.
Take B4: the “Fold vs WT IgG1 (Kd)” value worked out at 1.36 fold.
The same measure, in the same setting: for B5 the value was 9.38 fold.
For the molecule B6, the “Fold vs WT IgG1 (Kd)” value was 1.02 fold.
Take B7: the “Fold vs WT IgG1 (Kd)” value stood at 1.31 fold.
Regarding B8, the “Fold vs WT IgG1 (Kd)” value worked out at 4.08 fold.
Regarding B9, the “Fold vs WT IgG1 (Kd)” value stood at 2.02 fold.
As for B10, the “Fold vs WT IgG1 (Kd)” value is 3.26 fold.
As for B11, the “Fold vs WT IgG1 (Kd)” value came out at 3.65 fold.
In the case of B12, the “Fold vs WT IgG1 (Kd)” value stood at 1.01 fold.
Same read-out and setting: the result for B13 reads 0.255 fold.
Turning to B15, the “Fold vs WT IgG1 (Kd)” value worked out at 0.832 fold.
